Measured values reported in article PMC11195132.
Where two headings read alike, the source gives them in different places.

What was measured:
[1] = target: tSH2 domain of SYK (residues M6-N269) fused to an N-terminal 6xHis tag (UniProt P43405); test: FRET or BRET
[2] = target: tSH2 domain of SYK (residues M6-N269) fused to an N-terminal 6xHis tag (UniProt P43405); test: FRET or BRET; remark: listed apart in the source

## unlabeled FCER1G-phospho-peptide (from UniProt P30273 54-82)
[1]
  IC50: 5 nM
[2]
  IC50: 5 nM
